Test results: paper doi:10.1101/2022.05.02.490369

Biological target: RPP1^TIR (residue 83-254) (Arabidopsis) (UniProt F4J339)
Experiment: crystal structure

Substance: RPP1^TIR (residue 83-254) (from UniProt F4J339 83-254) (domain or fragment)
- stoichiometry N: 4
